Results from US20240124607A1 (Merck Sharp & Dohme, published 2024).
Positions count from the first letter of the chain named.

B1: AB0466 F3' CEACAM5 TriNKET (bispecific antibody, human IgG1, kappa)
chain: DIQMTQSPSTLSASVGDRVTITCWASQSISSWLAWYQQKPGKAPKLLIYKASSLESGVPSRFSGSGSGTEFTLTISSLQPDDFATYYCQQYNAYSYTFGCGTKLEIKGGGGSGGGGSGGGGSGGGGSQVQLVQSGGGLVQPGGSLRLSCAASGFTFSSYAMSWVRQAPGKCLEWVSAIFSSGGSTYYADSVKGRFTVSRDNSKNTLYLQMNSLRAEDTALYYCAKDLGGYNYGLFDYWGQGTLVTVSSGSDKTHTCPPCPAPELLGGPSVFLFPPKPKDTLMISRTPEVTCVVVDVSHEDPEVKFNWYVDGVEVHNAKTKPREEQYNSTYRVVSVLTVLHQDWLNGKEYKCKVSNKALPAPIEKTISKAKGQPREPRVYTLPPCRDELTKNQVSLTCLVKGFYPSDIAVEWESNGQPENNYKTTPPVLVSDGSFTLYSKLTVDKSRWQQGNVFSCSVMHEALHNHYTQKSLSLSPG
heavy: EVQLVESGGGLVKPGGSLRLSCAASGFTFSSYSMNWVRQAPGKGLEWVSSISSSSSYIYYADSVKGRFTISRDNAKNSLYLQMNSLRAEDTAVYYCARGAPIGAAAGWFDPWGQGTLVTVSSASTKGPSVFPLAPSSKSTSGGTAALGCLVKDYFPEPVTVSWNSGALTSGVHTFPAVLQSSGLYSLSSVVTVPSSSLGTQTYICNVNHKPSNTKVDKKVEPKSCDKTHTCPPCPAPELLGGPSVFLFPPKPKDTLMISRTPEVTCVVVDVSHEDPEVKFNWYVDGVEVHNAKTKPREEQYNSTYRVVSVLTVLHQDWLNGKEYKCKVSNKALPAPIEKTISKAKGQPREPQVCTLPPSRDELTENQVSLTCLVKGFYPSDIAVEWESNGQPENNYKTTPPVLDSDGSFFLYSWLTVDKSRWQQGNVFSCSVMHEALHNHYTQKSLSLSPG
light: DIQMTQSPSSVSASVGDRVTITCRASQGISSWLAWYQQKPGKAPKLLIYAASSLQSGVPSRFSGSGSGTDFTLTISSLQPEDFATYYCQQGVSFPRTFGGGTKVEIKRTVAAPSVFIFPPSDEQLKSGTASVVCLLNNFYPREAKVQWKVDNALQSGNSQESVTEQDSKDSTYSLSSTLTLSKADYEKHKVYACEVTHQGLSSPVTKSFNRGEC
B2: AB0621 F3' CEACAM5 TriNKET (bispecific antibody, human IgG1, kappa)
chain: DIVMTQSPDSLAVSLGERATINCKSSHSLLYGNFQNNYLAWYQQKPGQPPKLLIYWASTRESGVPDRFSGSGSGTDFTLTISSLQAEDVAVYYCQQYYSYPYTFGCGTKLEIKGGGGSGGGGSGGGGSGGGGSQVQLVQSGAEVKKPGASVKVSCKASGYTFTAYTIHWVRQAPGQCLEWMGYINPSSGYTEYNQKFKDRTTLTADTSISTAYMELSRLRSDDTAVYYCTREGGLLWFDYWGQGTLVTVSSGSDKTHTCPPCPAPELLGGPSVFLFPPKPKDTLMISRTPEVTCVVVDVSHEDPEVKFNWYVDGVEVHNAKTKPREEQYNSTYRVVSVLTVLHQDWLNGKEYKCKVSNKALPAPIEKTISKAKGQPREPRVYTLPPCRDELTKNQVSLTCLVKGFYPSDIAVEWESNGQPENNYKTTPPVLVSDGSFTLYSKLTVDKSRWQQGNVFSCSVMHEALHNHYTQKSLSLSPG
heavy: B1 heavy
light: B1 light
B3: AB0411 F3' CEACAM5 TriNKET (bispecific antibody, human IgG1, kappa)
chain: DIQLTQSPATLSVSPGERATLSCRASQSVSSSYLAWYQQKPGQAPRLLIYGASSRATGIPDRFSGSGSGTDFTLTISRLEPEDFAVYYCQQYNNWPLTFGCGTKVEIKGGGGSGGGGSGGGGSGGGGSQVQLVQSGGGLVQPGGSLRLSCAASGFTFTSYAMSWVRQAPGKCLEWVSAISGTGDSTFYADSVKGRFTFSRDNSKNTLYLQMNSLRAEDTAVYYCAKDLGWLQYGLFDYWGQGTLVTVSSGSDKTHTCPPCPAPELLGGPSVFLFPPKPKDTLMISRTPEVTCVVVDVSHEDPEVKFNWYVDGVEVHNAKTKPREEQYNSTYRVVSVLTVLHQDWLNGKEYKCKVSNKALPAPIEKTISKAKGQPREPRVYTLPPCRDELTKNQVSLTCLVKGFYPSDIAVEWESNGQPENNYKTTPPVLVSDGSFTLYSKLTVDKSRWQQGNVFSCSVMHEALHNHYTQKSLSLSPG
heavy: B1 heavy
light: B1 light
B4: AB0264 F3' CEACAM5 TriNKET (bispecific antibody, human IgG1, kappa)
chain: B2 chain with S210P
heavy: B1 heavy
light: B1 light

Key:
Human CEACAM5 (E398) = molecular target: T1, Human CEACAM5 (E398) (human, UniProt P06731 35-685, limits assumed); assay: SPR, anti-hFc capture, 37C, pH 7.4
T1 construct: also called hCEACAM5
T1 sequence: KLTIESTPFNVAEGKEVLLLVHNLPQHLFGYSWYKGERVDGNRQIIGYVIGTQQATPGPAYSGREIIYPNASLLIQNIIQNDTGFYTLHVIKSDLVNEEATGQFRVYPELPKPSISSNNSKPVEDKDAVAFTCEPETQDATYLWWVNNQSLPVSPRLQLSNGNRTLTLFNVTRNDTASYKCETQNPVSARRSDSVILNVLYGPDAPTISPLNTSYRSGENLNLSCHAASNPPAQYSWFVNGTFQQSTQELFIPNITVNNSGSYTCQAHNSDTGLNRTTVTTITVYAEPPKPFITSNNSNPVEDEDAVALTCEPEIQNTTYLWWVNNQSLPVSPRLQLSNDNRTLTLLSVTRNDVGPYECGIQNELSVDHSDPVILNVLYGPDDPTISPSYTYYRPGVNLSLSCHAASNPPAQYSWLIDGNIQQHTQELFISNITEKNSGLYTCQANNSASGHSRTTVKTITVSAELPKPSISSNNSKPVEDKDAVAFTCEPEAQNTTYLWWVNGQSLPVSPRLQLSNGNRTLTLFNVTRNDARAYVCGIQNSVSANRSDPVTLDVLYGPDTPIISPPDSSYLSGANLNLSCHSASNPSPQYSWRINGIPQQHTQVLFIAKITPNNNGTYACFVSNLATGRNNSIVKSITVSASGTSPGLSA
Experimental: (§1) To determine the affinity and cross-reactivity of CEACAM5 TriNKET molecules, AB0411, AB0466, or AB0621 TriNKETs were captured using an anti-human Fc capture antibody (Cytiva, #BR100839) immobilized onto a Biacore CM5 standard surface sensor chip following manufacturer instructions. Human or cynomolgus CEACAM5 were titrated over captured AB0411, AB0466, and AB0621 as 2-fold serial dilutions starting from 300 nM. Association was monitored for 300 sec and dissociation was monitored for 600 sec. The assay was run at 37° C. at pH 7.4 and 6.0. The surface of the CM5 chip was regenerated with 10 mM glycine pH 1.5 for 20 sec at 100 μL/min.

Human CEACAM6 = molecular target: T2, Human CEACAM6 (human, UniProt P40199 35-320, limits assumed); assay: SPR, 37C, pH 7.4
T2 sequence (looked up): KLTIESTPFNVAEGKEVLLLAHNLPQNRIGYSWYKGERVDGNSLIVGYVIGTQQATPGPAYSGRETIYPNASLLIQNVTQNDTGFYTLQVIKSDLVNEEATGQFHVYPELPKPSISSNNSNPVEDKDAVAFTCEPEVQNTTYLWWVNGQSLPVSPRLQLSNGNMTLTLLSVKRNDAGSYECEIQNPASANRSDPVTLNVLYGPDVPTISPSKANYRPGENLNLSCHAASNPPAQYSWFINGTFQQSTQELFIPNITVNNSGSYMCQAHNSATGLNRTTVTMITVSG
Experimental: as §1
Binding to human and cynomolgus CEACAM1, 6, and 8 was assessed by SPR using the same protocol as for CEACAM5 but using up to 600 and 1200 nM for titration of each protein. There were no detectable binding signals at these concentrations for AB0621. In contrast, reproducible weak binding signals were detected for AB0411 and AB0466, but these two TriNKETs also bound to different epitope(s) on the N-terminus of CEACAM5. Typical weak binding sensorgrams for AB0411 and AB0466 against human CEACAM1 and 6 indicated weak but notable signals compared to AB0621. […]

CEACAM5 A1-B1-Fc = molecular target: T3, CEACAM5 A1-B1-Fc (human, UniProt P06731 145-322, limits assumed); assay: SPR, Fab capt, 25C
T3 construct: also called A1-B1 domain
T3 sequence: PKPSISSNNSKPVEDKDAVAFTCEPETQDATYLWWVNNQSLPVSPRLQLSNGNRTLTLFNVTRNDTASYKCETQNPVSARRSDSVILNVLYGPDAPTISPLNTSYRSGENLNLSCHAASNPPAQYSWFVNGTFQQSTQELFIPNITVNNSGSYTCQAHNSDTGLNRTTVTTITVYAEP
Experimental: If the protein domain was an Fc fusion, AB0411, AB0466, AB0264, or AB0621 were captured using an anti-human Fab antibody (Cytiva, #28958325) immobilized onto a CM5 chip. The various hCEACAM5 protein domains (N-term, A1-B1, A2, B2, A3, or B3) were titrated over the captured TriNKETs at 50 μL/min for 180 sec of association and 300 sec of dissociation. The assay was run at 25° C. in HBS-EP+ running buffer, pH 7.4. The surface of the CM5 chip was regenerated using […] glycine pH 2.1.

human CEACAM5 on cells [1] = molecular target: T4, human CEACAM5 on cells (human, UniProt P06731 35-685); assay: flow cytometry, MKN-45 cells
T4 construct: tumour cell lines with endogenous CEACAM5, or B16F10 engineered to express hCEACAM5; also called CEACAM5 on MKN-45, HPAF-II, SK-CO-1, LoVo, BxPC-3, Kato-III, LS-174T, ZR-75-30; hCEACAM5-B16F10
T4 sequence: T1 sequence

human CEACAM5 on cells [2] = molecular target: T4, human CEACAM5 on cells; assay: flow cytometry, SK-CO-1 cells
human CEACAM5 on cells [3] = molecular target: T4, human CEACAM5 on cells; assay: flow cytometry, Kato-III cells
human CEACAM5 on cells [4] = molecular target: T4, human CEACAM5 on cells; assay: flow cytometry, BxPC-3 cells

Binder	Kd (Human CEACAM5 (E398)) [nM]	kon (Human CEACAM5 (E398)) [M⁻¹ s⁻¹]	binding result (Human CEACAM6)	Kd (CEACAM5 A1-B1-Fc) [nM]	kon (CEACAM5 A1-B1-Fc) [M⁻¹ s⁻¹]	EC50 (human CEACAM5 on cells [1]) [nM]	Max FOB (human CEACAM5 on cells [1]) [fold over background]	EC50 (human CEACAM5 on cells [2]) [nM]	Max FOB (human CEACAM5 on cells [2]) [fold over background]	EC50 (human CEACAM5 on cells [3]) [nM]	Max FOB (human CEACAM5 on cells [3]) [fold over background]	EC50 (human CEACAM5 on cells [4]) [nM]	Max FOB (human CEACAM5 on cells [4]) [fold over background]
B1	7.2	190000	no binding (tested: up to 600 and 1200 nM)										
B2	17	100000	no binding (tested: up to 600 and 1200 nM)	1.5	250000								
B3	1.7	270000				9.05	107	8.67	37	1.17	5	4.28	19
B4			no binding (tested: up to 600 and 1200 nM)	1	260000	20.7	60	104	42	13.3	4	30.5	12
